According to the supplement of paper PMC10724198:
± gives the standard deviation of the averaged measurements.

system: Saccharomyces cerevisiae; experiment: protein stability index of tFT-peptide fusion (C-terminal peptide) (PSI (0-1 scale)); higher = more stable (slower turnover); conditions: genetic background: wild type; temperature: 30 C
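Note: PSI is a weighted mean of sequencing reads over stability bins, variants kept only with over 10 reads, mCherry proximal and sfGFP distal, peptide attached via GGGS linker.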

Sequence	protein stability index
VFSGGTVRWVGG	0.702 ± 0.023
VFWVFDGFEGFI	0.825 ± 0.022
VGAGGAWSGCGP	0.675 ± 0.046
VGAVRVAVGVGG	0.566 ± 0.0096
VGAWGCGMWVVG	0.645 ± 0.024
VGCWATGVGGPS	0.706 ± 0.038
VGDGLGGGGQGG	0.664 ± 0.056
VGDGQVWGGQGG	0.669 ± 0.063
VGEGLGWGGQGG	0.712 ± 0.062
VGERVSRRIQTR	0.699 ± 0.052
VGESGEGVVMGE	0.677 ± 0.08
VGFVYLTSAQVW	0.527 ± 0.012
VGGAAVVAGGGV	0.695 ± 0.031
VGGACGLSGGLV	0.652 ± 0.062
VGGAVGAGGGGG	0.649 ± 0.032
VGGAVVWVGLVR	0.55 ± 0.031
VGGEGGLGVRPR	0.662 ± 0.033
VGGEGVGVGGEV	0.616 ± 0.018
VGGFVRGRVWCS	0.696 ± 0.012
VGGGFSSVVWLW	0.658 ± 0.043
VGGGGGVSLGGR	0.655 ± 0.087
VGGLAFSTSSIW	0.809 ± 0.11
VGGMGAEGRGGK	0.721 ± 0.009
VGGRGLVWVWGG	0.631 ± 0.059
VGGSERVWVKSL	0.537 ± 0.043
VGGVWVDVMGFC	0.793 ± 0.16

Sequence	protein stability index
VGILHCELVDVS	0.735 ± 0.17
VGIPKEADKGGF	0.704 ± 0.035
VGLGVLWVMGKV	0.667 ± 0.082
VGLTNSHTHVRR	0.767 ± 0.019
VGNSLRCRGGWR	0.628 ± 0.069
VGPFSSSRIGTS	0.6003 ± 0.0019
VGPGVLVLGVGA	0.68 ± 0.035
VGPRFAYLDVAA	0.5644 ± 0.0031
VGPSGLIRCSFC	0.712 ± 0.029
VGRAGMPGSAES	0.66 ± 0.022
VGRARRKGGGVG	0.6384 ± 0.0024
VGRGWSSGGGGD	0.682 ± 0.023
VGRSRNGAQSNR	0.65 ± 0.015
VGSAENQHTGRM	0.678 ± 0.018
VGSSRWRHVGRR	0.6742 ± 0.0063
VGSVWGDCLGYL	0.701 ± 0.049
VGTPPSEVGVLA	0.628 ± 0.035
VGVLLGPVWFSV	0.684 ± 0.042
VGVPAGQRRLAS	0.718 ± 0.089
VGVRCCPRLRFG	0.695 ± 0.061
VGVSEVGRGWAT	0.71 ± 0.062
VGVSFSFGSIFL	0.687 ± 0.022
VGVWAGVVLLGG	0.825 ± 0.18
VGWQGRWWLWGG	0.568 ± 0.03
VGWSWTSWTKGD	0.661 ± 0.021
VHAGVLTMADPT	0.653 ± 0.05

Sequence	protein stability index
VHIVTLGGVLSF	0.608 ± 0.0074
VHRRRVSVGGGV	0.69044 ± 0.00032
VIACTFLSCSFS	0.531 ± 0.02
VIGEWWPVSGQH	0.718 ± 0.014
VIISDPNKDTRL	0.645 ± 0.066
VILTAISPAFSV	0.647 ± 0.013
VIQCIGANGAII	0.645 ± 0.052
VIRQVKFDRKCS	0.681 ± 0.068
VISKIAIKAKER	0.665 ± 0.047
VKIYPSHGKVRD	0.6901 ± 0.00096
VKKVSSVGGREG	0.643 ± 0.1
VKLEEKNTINKV	0.668 ± 0.1
VKSGSTALRVNS	0.607 ± 0.051
VKSQRISVMIKK	0.689 ± 0.022
VLCCFLFGFLLV	0.576 ± 0.011
VLDFRGELGLLG	0.699 ± 0.025
VLEVLKTGKKIM	0.692 ± 0.032
VLGGRWDGVGGV	0.661 ± 0.064
VLGLGVVACWAV	0.569 ± 0.013
VLGRRGLVWKRV	0.5993 ± 0.0033
VLHFIFLCRCPV	0.497 ± 0.011
VLICGLNYLSLC	0.64 ± 0.022
VLIEWKGSREKY	0.824 ± 0.21
VLIRRLPFTSYL	0.6365 ± 0.0034
VLKGIVKQTRRG	0.685 ± 0.058
VLKRYILRNEKD	0.697 ± 0.027

Sequence	protein stability index
VLLARVRRSSDS	0.649 ± 0.093
VLLGFSDYLRVT	0.698 ± 0.079
VLLGTVRCCFLG	0.556 ± 0.022
VLLLRPTPPLFH	0.663 ± 0.046
VLLLSRPLFPFS	0.669 ± 0.031
VLLMRSARTAGA	0.69 ± 0.021
VLLRKLLCPGYV	0.598 ± 0.016
VLLRRRASSISG	0.671 ± 0.043
VLPHFSLSTPSP	0.7493 ± 0.0052
VLQEFTFPKVGL	0.675 ± 0.015
VLSGPQVVWSES	0.679 ± 0.017
VLSLLGVLFCLF	0.634 ± 0.028
VLSPVFLISLFS	0.552 ± 0.016
VLTSLVRGVFTG	0.632 ± 0.069
VLVSVSVPLRGR	0.78 ± 0.1
VLWIWRGFRGLG	0.626 ± 0.011
VMAVARIEVKMR	0.587 ± 0.024
VMGYCNWCVIRQ	0.694 ± 0.054
VMWNLVCLRRSQ	0.6271 ± 0.0012
VNEEGCDILVRT	0.757 ± 0.013
VNPAFRTSICHH	0.584 ± 0.12
VNTISRKIPPIA	0.648 ± 0.041
VNVSLFWFGTYL	0.61 ± 0.054
